Assay results: publication PMC3847324, “Jun dimerization protein 2 is a critical component of the Nrf2/MafK complex regulating the response to ROS homeostasis”

Legend:
Assay in all cases: EMSA; EMSA: 5 ug GST fusion or 10 ng IVT protein, 25 C 30 min; 5% native PAGE in 0.5x TBE at 4 C; binding buffer, salt and pH not given
IVT-JDP2 = target: T1, IVT-JDP2 (mouse, UniProt P97875 1-163); conditions: protein: ivt; chain copies: 2; label: 32P 5' end (T4 kinase) as probe; blunt
T1 sequence: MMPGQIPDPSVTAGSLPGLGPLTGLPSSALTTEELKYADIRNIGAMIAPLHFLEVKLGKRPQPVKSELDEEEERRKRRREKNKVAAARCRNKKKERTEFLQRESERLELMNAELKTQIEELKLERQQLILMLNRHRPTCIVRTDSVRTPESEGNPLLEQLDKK

IVT-MafK = IVT-MafK (rat, UniProt Q8K4B3 1-156); conditions: protein: ivt; chain copies: 2; label: 32P 5' end (T4 kinase) as probe; blunt
IVT-MafK, sequence (Q8K4B3 entry or part of it): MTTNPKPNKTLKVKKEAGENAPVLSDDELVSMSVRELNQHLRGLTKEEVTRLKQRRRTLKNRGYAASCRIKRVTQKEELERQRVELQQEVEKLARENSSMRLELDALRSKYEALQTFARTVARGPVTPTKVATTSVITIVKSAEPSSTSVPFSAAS

GST-JDP2 = target: T2, GST-JDP2 (mouse, UniProt P97875 1-163); conditions: protein: recombinant; tags: GST; chain copies: 2; label: 32P 5' end (T4 kinase) as probe; blunt
T2 sequence: T1 sequence

Measured: binding result

B1: human NQO1-ARE WT (dsDNA)
DNA 1: CAGTCACAGTGACTCAGCAGAATCT
DNA 2: AGATTCTGCTGAGTCACTGTGACTG
binds: all assays above
